Several values for one entry are separate records, joined by “and”; a condition that tells them apart may be missing. Identical values can stand only once.
What was measured:
[1] = molecular target: Theileria parva schizont antigen Tp2, bacterially expressed recombinant protein with His-tag (Theileria parva (Muguga)); assay: SEC-MALS; apparent dimer fraction from preparative SEC; FPLC (Shimadzu) with Wyatt scattering and refractive index detectors
[2] = molecular target: Theileria parva schizont antigen Tp2, bacterially expressed recombinant protein with His-tag (Theileria parva (Muguga)); assay: SEC; preparative SEC (Generon ProteoSEC 3-70 kD) after affinity chromatography; 20 mM PO4, 250 mM NaCl, 0.02% NaN3, pH 7.5; apparent masses from elution times

- stoichiometry N [1]: 2
- stoichiometry N [2]: 4 and 2
Substance: Theileria parva schizont antigen Tp2, bacterially expressed recombinant protein with His-tag (natural protein)
